Test [1] addresses PEG7-Octyl-Salmon Calcitonin, Diconjugate (salmon) (UniProt P01263).
Test [2] deals with salmon calcitonin (salmon) (UniProt P01263).
For test [3] the target is unchanged. The source holds these as a separate data set.
Test [4] addresses PEG7-Octyl-Salmon Calcitonin, Diconjugate (salmon) (UniProt P01263). The source holds these as a separate data set.

With Chymotrypsin (enzyme), the % Remaining Following 0.5 U/mL Chymotrypsin Digest (60 min, non-formulated) in test [1] came out at 6 % remaining; in test [2], 5 % remaining.
Turning to Trypsin (enzyme), the % Remaining following 1 U/mL Trypsin Digest (180 min, non-formulated) in test [3] was determined as 31 % remaining; in test [4], 61 % remaining.

The values are drawn from patent US20090281023A9.
